Measured values published in the supplement of paper PMC10126150.
± gives the standard deviation of the averaged measurements.

system: ATP; assay: switch fluorescence ratio, 500 uM ATP over buffer (Cy3 cluster intensity, sum of 5 cycles each) (fold (ratio)); higher = stronger signal-on switching upon ATP binding; sequences stand for … in TCGTCGGCAGCGTCAGATGTGTATAAGAGACAGTTTTTTTTTTTTTTTTTTTTTTTTT…TC; settings: aptamer strand: ATP DNA aptamer (quencher-CACCTGGGGGAGTATTGCGGAGGAAGG + anchor), 100 nM annealed; ATP concentration: 500 uM
Summary of the method: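 Clusters with intensities outside 100-1000 RFU were excluded. The remaining Cy3-labelled switching-strand clusters on a modified Illumina MiSeq flow-cell had been annealed to 100 nM quencher-labelled ATP aptamer and imaged in selection buffer, then after 15 min with 500 uM ATP at 22 °C, for five cycles separated by NaOH stripping and re-annealing. The fluorescence ratio, averaged per switch-domain sequence, is each cluster's summed target-cycle Cy3 intensity over its summed buffer-cycle Cy3 intensity.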
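Note: ATP exposure 15 min at 22 °C before imaging.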

Sequence | switch fluorescence ratio
CGGGAGCG | 1.03 ± 0.022
CGGGAGGTAA | 0.9863 ± 0.0038
CGGGATAGGG | 0.977 ± 0.026
CGGGATGACA | 0.979 ± 0.046
CGGGATGATT | 0.998 ± 0.044
CGGGATGGAG | 0.9879 ± 0.0062
CGGGATTTAG | 1 ± 0.014
CGGGCAGTTG | 0.9992 ± 0.0071
CGGGCATGGG | 1.01 ± 0.029
CGGGCCACGT | 0.997 ± 0.034
CGGGCCACTT | 1.008 ± 0.0076
CGGGCCGGGA | 0.976 ± 0.025
CGGGCCGTTT | 1.06 ± 0.077
CGGGCCTTGA | 0.981 ± 0.016
CGGGCGATAA | 1.45 ± 0.0045
CGGGCGGACA | 0.974 ± 0.04
CGGGCGGGTG | 1.03 ± 0.017
CGGGCGTCTC | 0.996 ± 0.022
CGGGCTATGG | 1 ± 0.023
CGGGCTGTTG | 0.963 ± 0.033
CGGGGAAAGC | 0.985 ± 0.027
CGGGGAAGTG | 1 ± 0.019
CGGGGAATTT | 1.01 ± 0.022
CGGGGAGTAT | 0.975 ± 0.015
CGGGGATCGT | 1 ± 0.032

Sequence | switch fluorescence ratio
CGGGGATGCA | 1.03 ± 0.023
CGGGGATGTC | 1.05 ± 0.014
CGGGGATTTC | 1 ± 0.027
CGGGGATTTG | 0.976 ± 0.032
CGGGGCGAAG | 0.984 ± 0.038
CGGGGCGGGA | 1.01 ± 0.021
CGGGGCTGAA | 0.991 ± 0.0089
CGGGGGAATG | 0.967 ± 0.027
CGGGGGACTG | 1.04 ± 0.039
CGGGGGAGTA | 0.996 ± 0.018
CGGGGGATGG | 1.01 ± 0.045
CGGGGGCCGA | 1 ± 0.019
CGGGGGGACG | 1.01 ± 0.084
CGGGGGGCTC | 0.99 ± 0.01
CGGGGGGTAC | 1.03 ± 0.036
CGGGGGGTAG | 0.995 ± 0.035
CGGGGGGTGG | 1 ± 0.039
CGGGGGGTTT | 1.01 ± 0.025
CGGGGGTACA | 1.02 ± 0.019
CGGGGGTAGT | 1.03 ± 0.015
CGGGGGTCGA | 0.989 ± 0.031
CGGGGTAGTC | 0.967 ± 0.07
CGGGGTATTT | 1 ± 0.022
CGGGGTCGTT | 1 ± 0.024
CGGGGTGAAA | 0.983 ± 0.029

Sequence | switch fluorescence ratio
CGGGGTGCCT | 0.999 ± 0.024
CGGGGTGTTA | 1.07 ± 0.057
CGGGGTTACT | 0.9961 ± 0.0082
CGGGGTTATT | 0.989 ± 0.014
CGGGGTTTGC | 0.997 ± 0.015
CGGGGTTTGG | 0.999 ± 0.017
CGGGTAAGTA | 1.03 ± 0.097
CGGGTAATCG | 1.01 ± 0.0082
CGGGTAATTC | 1.128 ± 0.0039
CGGGTACTTT | 1 ± 0.059
CGGGTATTAA | 0.994 ± 0.032
CGGGTATTCG | 0.99 ± 0.03
CGGGTATTGG | 0.97968 ± 0.00074
CGGGTCGGTT | 1.07 ± 0.1
CGGGTCTAAA | 0.9966 ± 0.0027
CGGGTCTATT | 0.9649 ± 0.001
CGGGTCTTAG | 1.01 ± 0.011
CGGGTGAGGA | 1.04 ± 0.04
CGGGTGAGTA | 1.05 ± 0.08
CGGGTGCAAG | 1.03 ± 0.027
CGGGTGGCCT | 1 ± 0.02
CGGGTGGCGA | 1.02 ± 0.081
CGGGTGGGAA | 0.9995 ± 0.0026
CGGGTGGGCA | 0.945 ± 0.019
CGGGTGGGGA | 1.01 ± 0.04

Sequence | switch fluorescence ratio
CGGGTGGGGC | 1.02 ± 0.052
CGGGTGGGGG | 1.07 ± 0.036
CGGGTGGGTA | 1 ± 0.023
CGGGTTAAAA | 0.9714 ± 0.0034
CGGGTTAATA | 0.989 ± 0.022
CGGGTTAGGA | 1.02 ± 0.036
CGGGTTAGTT | 1.002 ± 0.01
CGGGTTCAGT | 0.974 ± 0.014
CGGGTTCGTG | 0.972 ± 0.029
CGGGTTCTGG | 0.989 ± 0.014
CGGGTTGCCT | 0.999 ± 0.028
CGGGTTGGGA | 1.007 ± 0.0042
CGGGTTGTGT | 1 ± 0.02
CGGGTTTCGC | 0.986 ± 0.014
CGGGTTTGTG | 0.973 ± 0.032
CGGGTTTTCC | 1.03 ± 0.042
CGGGTTTTTT | 0.988 ± 0.032
CGGTAACCGG | 0.979 ± 0.0098
CGGTAAGGCA | 0.99 ± 0.017
CGGTAAGTGG | 0.988 ± 0.024
CGGTAATATC | 1.915 ± 0.016
CGGTACCGTT | 1.02 ± 0.049
CGGTACGGGT | 0.992 ± 0.025
CGGTAGATCG | 1 ± 0.073
CGGTAGGCGG | 0.971 ± 0.018

Sequence | switch fluorescence ratio
CGGTATAAGT | 0.9949 ± 0.0042
CGGTATTATG | 0.993 ± 0.022
CGGTATTCCG | 0.945 ± 0.017
CGGTATTCTT | 0.9883 ± 0.0068
CGGTATTTAA | 1.02 ± 0.046
CGGTATTTAC | 1.04 ± 0.021
CGGTCAACAC | 1.66 ± 0.15
CGGTCAAGAG | 1.11 ± 0.019
CGGTCATAAG | 0.982 ± 0.043
CGGTCCAATC | 1.37 ± 0.052
CGGTCCCTGC | 1.01 ± 0.1
CGGTCCGGGT | 0.99721 ± 0.00018
CGGTCGGAGG | 0.974 ± 0.023
CGGTCGGGGG | 0.999 ± 0.032
CGGTCTGTGG | 0.995 ± 0.021
CGGTCTGTT | 0.9878 ± 0.0066
CGGTCTTCAT | 0.9903 ± 0.00043
CGGTGAATTT | 0.98263 ± 0.0009
CGGTGCGGGC | 1 ± 0.09
CGGTGCTGGG | 0.999 ± 0.04
CGGTGGAGGG | 0.9849 ± 0.0091
CGGTGGATTC | 1.0049 ± 0.00055
CGGTGGGCGA | 0.987 ± 0.048
CGGTGGGGGG | 1.04 ± 0.03
CGGTGGGTTG | 0.969 ± 0.053

Sequence | switch fluorescence ratio
CGGTGGTTGC | 1.03 ± 0.11
CGGTGTGGCT | 0.97 ± 0.016
CGGTGTGTGG | 0.999 ± 0.032
CGGTGTTGCC | 0.971 ± 0.011
CGGTTAAAAA | 0.982 ± 0.066
CGGTTAACCA | 1.02 ± 0.021
CGGTTAACGG | 1 ± 0.025
CGGTTAATTC | 1.012 ± 0.0028
CGGTTAGGCG | 1.06 ± 0.012
CGGTTATACT | 1.25 ± 0.021
CGGTTATCCT | 1.04 ± 0.032
CGGTTATGGA | 0.999 ± 0.026
CGGTTCATCC | 1.02 ± 0.014
CGGTTCCGTA | 0.971 ± 0.047
CGGTTCGGAT | 0.989 ± 0.017
CGGTTCGGTG | 0.981 ± 0.014
CGGTTCGTTA | 0.9795 ± 0.004
CGGTTGAGGT | 0.999 ± 0.047
CGGTTGCGGA | 0.995 ± 0.051
CGGTTGGCGG | 0.996 ± 0.038
CGGTTGGGCT | 1.01 ± 0.054
CGGTTGGGGC | 1.11 ± 0.057
CGGTTGTAGC | 1 ± 0.021
CGGTTGTAGT | 0.993 ± 0.032
CGGTTTATGC | 1.09 ± 0.052

Sequence | switch fluorescence ratio
CGGTTTGGGG | 0.991 ± 0.027
CGGTTTGGGT | 0.9931 ± 0.0043
CGGTTTTTAG | 1.01 ± 0.044
CGGTTTTTTC | 1.03 ± 0.027
CGTAAAATGA | 0.992 ± 0.022
CGTAAATTGT | 0.9672 ± 0.0039
CGTAAATTTA | 0.975 ± 0.018
CGTAACGGGA | 1.037 ± 0.0076
CGTAAGGCAG | 1 ± 0.038
CGTAAGGGTT | 1.008 ± 0.0063
CGTAAGTTTT | 0.98 ± 0.03
CGTACGGGCG | 0.956 ± 0.028
CGTACTCTCA | 1.037 ± 0.006
CGTACTTTTT | 1 ± 0.032
CGTAGACGGT | 0.9592 ± 0.0063
CGTAGACTTG | 0.9736 ± 0.005
CGTAGCACAG | 1.3067 ± 0.0013
CGTAGCATCG | 1.1 ± 0.038
CGTAGGGGGC | 1.03 ± 0.023
CGTAGGGGGT | 1.01 ± 0.03
CGTAGTAGGC | 1.12 ± 0.1
CGTAGTGAAG | 1.03 ± 0.037
CGTAGTGGAA | 0.9919 ± 0.0061
CGTAGTTCGT | 1.036 ± 0.0046
CGTATAGGAG | 1.02 ± 0.045

Sequence | switch fluorescence ratio
CGTATAGGTG | 1.06 ± 0.077
CGTATAGTTA | 0.987 ± 0.022
CGTATATTAA | 0.975 ± 0.068
CGTATCCACT | 0.99569 ± 0.00085
CGTATCTGAC | 1.04 ± 0.014
CGTATGGCCT | 0.958 ± 0.01
CGTATGGGGC | 0.948 ± 0.087
CGTATTGGGG | 1.04 ± 0.017
CGTATTTCTT | 0.989 ± 0.021
CGTATTTTT | 0.99 ± 0.018
CGTCAAAAAC | 1.38 ± 0.2
CGTCAATTGA | 1.01 ± 0.036
CGTCACATAA | 1.22 ± 0.016
CGTCAGGTGT | 3.713 ± 0.012
CGTCATATTG | 0.997 ± 0.027
CGTCATGGCT | 0.957 ± 0.041
CGTCCAGCTT | 1.51 ± 0.18
CGTCCGGCGC | 1.346 ± 0.0029
CGTCCGGGGA | 1.56 ± 0.075
CGTCCGGGGT | 1.48 ± 0.62
CGTCCGGTCG | 1.02 ± 0.064
CGTCCTGAGG | 1.04 ± 0.019
CGTCCTTGTT | 0.991 ± 0.029
CGTCCTTTTT | 1.05 ± 0.039
CGTCGCGGGC | 1.0404 ± 0.00051
